For 1 substance, liposome-based GEF assay, Gβγ dose-response (0.5 μM PIP3): EC50 of activation of P-Rex1 against WT Gβγ; lower efficacy than WT results are on record in article PMC6795519.

The test deals with PIP3-dependent Rac exchanger 1 (P-Rex1), residues 38 to 1659 (human) (UniProt Q8TCU6).
UniProt Q8TCU6, sequence (Q8TCU6 38-1659): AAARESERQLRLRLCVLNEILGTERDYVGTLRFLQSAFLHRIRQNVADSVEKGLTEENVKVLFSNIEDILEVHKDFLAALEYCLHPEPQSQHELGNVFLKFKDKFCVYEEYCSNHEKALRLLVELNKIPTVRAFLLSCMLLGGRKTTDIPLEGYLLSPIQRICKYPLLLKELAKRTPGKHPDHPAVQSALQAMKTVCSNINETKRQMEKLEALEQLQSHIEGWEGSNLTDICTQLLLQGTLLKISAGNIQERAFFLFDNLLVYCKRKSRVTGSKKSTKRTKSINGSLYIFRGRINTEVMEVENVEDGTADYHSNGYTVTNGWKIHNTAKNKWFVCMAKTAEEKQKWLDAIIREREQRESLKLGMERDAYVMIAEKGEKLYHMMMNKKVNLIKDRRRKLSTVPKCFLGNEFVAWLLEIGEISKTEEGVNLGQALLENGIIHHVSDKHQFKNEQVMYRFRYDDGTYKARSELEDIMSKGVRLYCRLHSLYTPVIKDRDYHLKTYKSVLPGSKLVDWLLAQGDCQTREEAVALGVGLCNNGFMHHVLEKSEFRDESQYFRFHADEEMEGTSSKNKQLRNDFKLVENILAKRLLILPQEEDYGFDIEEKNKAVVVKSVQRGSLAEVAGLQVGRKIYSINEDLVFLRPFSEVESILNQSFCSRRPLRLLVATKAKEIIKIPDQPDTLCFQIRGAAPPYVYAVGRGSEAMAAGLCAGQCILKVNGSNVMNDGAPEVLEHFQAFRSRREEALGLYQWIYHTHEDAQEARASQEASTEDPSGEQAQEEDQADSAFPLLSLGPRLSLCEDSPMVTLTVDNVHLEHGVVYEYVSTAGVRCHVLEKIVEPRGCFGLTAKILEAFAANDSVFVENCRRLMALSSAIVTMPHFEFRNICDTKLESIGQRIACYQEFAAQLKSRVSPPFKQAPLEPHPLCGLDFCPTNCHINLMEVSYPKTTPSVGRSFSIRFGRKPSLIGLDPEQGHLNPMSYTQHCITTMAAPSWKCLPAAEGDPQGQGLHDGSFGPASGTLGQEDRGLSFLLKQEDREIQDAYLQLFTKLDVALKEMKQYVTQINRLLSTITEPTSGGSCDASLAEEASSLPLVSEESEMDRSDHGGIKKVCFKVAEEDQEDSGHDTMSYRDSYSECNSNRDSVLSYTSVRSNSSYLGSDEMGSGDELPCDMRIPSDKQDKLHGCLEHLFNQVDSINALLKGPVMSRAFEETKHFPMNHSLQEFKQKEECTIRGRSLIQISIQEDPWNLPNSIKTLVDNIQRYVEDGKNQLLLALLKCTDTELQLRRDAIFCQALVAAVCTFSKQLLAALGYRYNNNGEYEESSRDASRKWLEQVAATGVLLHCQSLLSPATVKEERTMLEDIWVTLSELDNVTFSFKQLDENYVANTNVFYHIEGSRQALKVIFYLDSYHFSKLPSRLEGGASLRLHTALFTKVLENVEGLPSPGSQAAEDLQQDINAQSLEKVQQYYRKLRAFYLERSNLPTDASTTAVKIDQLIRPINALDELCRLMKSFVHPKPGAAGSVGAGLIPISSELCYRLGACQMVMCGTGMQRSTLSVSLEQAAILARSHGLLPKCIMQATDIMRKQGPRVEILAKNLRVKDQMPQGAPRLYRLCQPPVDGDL

In turn, “Geranylgeranylated human Gβ1γ2 with Gβ W332A (from UniProt P62873 1-340; P59768 1-71) (complex)” registered a liposome-based GEF assay, Gβγ dose-response (0.5 μM PIP3): EC50 of activation of P-Rex1 against WT Gβγ; lower efficacy than WT of 10 fold.
